T1: EsCas13d, nuclease-dead (Eubacterium siraeum, UniProt B0MS50, R295A;H300A;R849A;H854A)
T1 sequence: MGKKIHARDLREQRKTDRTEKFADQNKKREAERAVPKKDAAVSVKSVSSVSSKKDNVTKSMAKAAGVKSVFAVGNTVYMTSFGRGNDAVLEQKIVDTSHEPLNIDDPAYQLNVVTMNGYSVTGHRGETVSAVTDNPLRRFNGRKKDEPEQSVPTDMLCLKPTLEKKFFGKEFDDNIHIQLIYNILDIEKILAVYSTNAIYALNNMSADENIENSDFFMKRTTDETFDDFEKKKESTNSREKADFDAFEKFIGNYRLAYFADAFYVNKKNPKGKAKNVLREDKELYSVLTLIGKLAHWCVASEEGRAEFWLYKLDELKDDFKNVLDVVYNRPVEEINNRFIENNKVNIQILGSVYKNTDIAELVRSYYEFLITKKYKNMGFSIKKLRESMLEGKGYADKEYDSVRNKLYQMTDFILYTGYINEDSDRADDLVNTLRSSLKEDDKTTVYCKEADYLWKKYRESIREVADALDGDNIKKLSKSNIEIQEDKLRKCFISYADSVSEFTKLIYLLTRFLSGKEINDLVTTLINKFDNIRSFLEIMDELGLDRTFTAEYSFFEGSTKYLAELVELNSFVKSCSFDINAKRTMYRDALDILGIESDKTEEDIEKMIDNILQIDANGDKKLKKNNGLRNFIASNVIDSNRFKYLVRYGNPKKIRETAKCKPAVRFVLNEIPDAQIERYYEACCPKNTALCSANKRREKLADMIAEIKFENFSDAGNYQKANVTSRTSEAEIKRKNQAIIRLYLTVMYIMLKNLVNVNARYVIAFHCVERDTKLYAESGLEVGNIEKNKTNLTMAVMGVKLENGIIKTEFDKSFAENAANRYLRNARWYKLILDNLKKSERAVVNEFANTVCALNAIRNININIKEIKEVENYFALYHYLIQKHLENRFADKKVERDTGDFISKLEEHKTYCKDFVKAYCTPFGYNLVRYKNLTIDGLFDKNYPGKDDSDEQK


Target: T1, EsCas13d, nuclease-dead
Assay: crRNA (strand 1, pre-loaded); Mg2+; 40 mM Tris-HCl pH 7.5, 150 mM NaCl, 6 mM MgCl2, 1 mM DTT, 0.1% Tween-20, 0.2 mg/ml BSA; 25 C; 10 min per concentration, then washed
Conditions: tags: His6-TwinStrep-SUMO cleaved; N-terminal SNAP kept (SNAP-Surface 488); label: 3' end held by stalled T7 RNA polymerase

Row | Binder | Kd
1 | target 2 MT 5'PFS CUU 3'PFS CCG (mixed) RNA 1: CACCCGUGCAAAAUUGCAGGGGUCUAAAACCUUCUCCAAAUUGUUUCAUCCU RNA 2: GGGAAUGGAUCCACAUCUACGAAUUCCUUAGGAUGAAACAAUUUGGAGAAGCCGAGAUCGGAAGAGCACACGU | 6 ± 0.4 nM
2 | target 2 MT 5'PFS AUU 3'PFS ACA (mixed) RNA 1: CACCCGUGCAAAAUUGCAGGGGUCUAAAACCUUCUCCAAAUUGUUUCAUCCU RNA 2: GGGAAUGGAUCCACAUCUACGAAUUCAUUAGGAUGAAACAAUUUGGAGAAGACAAGAUCGGAAGAGCACACGU | 9.5 ± 2 nM
3 | target 2 MT 5'PFS AAG 3'PFS AUC (mixed) RNA 1: CACCCGUGCAAAAUUGCAGGGGUCUAAAACCUUCUCCAAAUUGUUUCAUCCU RNA 2: GGGAAUGGAUCCACAUCUACGAAUUCAAGAGGAUGAAACAAUUUGGAGAAGAUCAGAUCGGAAGAGCACACGU | 5.2 ± 0.9 nM
4 | target 2 MT 5'PFS UGA 3'PFS ACA (mixed) RNA 1: CACCCGUGCAAAAUUGCAGGGGUCUAAAACCUUCUCCAAAUUGUUUCAUCCU RNA 2: GGGAAUGGAUCCACAUCUACGAAUUCUGAAGGAUGAAACAAUUUGGAGAAGACAAGAUCGGAAGAGCACACGU | 9.1 ± 1 nM
5 | target 2 MT 5'PFS GUA 3'PFS CUA (mixed) RNA 1: CACCCGUGCAAAAUUGCAGGGGUCUAAAACCUUCUCCAAAUUGUUUCAUCCU RNA 2: GGGAAUGGAUCCACAUCUACGAAUUCGUAAGGAUGAAACAAUUUGGAGAAGCUAAGAUCGGAAGAGCACACGU | 6.5 ± 0.6 nM
6 | target 2 MT 5'PFS UGA 3'PFS AGC (mixed) RNA 1: CACCCGUGCAAAAUUGCAGGGGUCUAAAACCUUCUCCAAAUUGUUUCAUCCU RNA 2: GGGAAUGGAUCCACAUCUACGAAUUCUGAAGGAUGAAACAAUUUGGAGAAGAGCAGAUCGGAAGAGCACACGU | 6 ± 0.9 nM
7 | target 2 MT 5'PFS GUA 3'PFS CUC (mixed) RNA 1: CACCCGUGCAAAAUUGCAGGGGUCUAAAACCUUCUCCAAAUUGUUUCAUCCU RNA 2: GGGAAUGGAUCCACAUCUACGAAUUCGUAAGGAUGAAACAAUUUGGAGAAGCUCAGAUCGGAAGAGCACACGU | 15.5 ± 2.6 nM
8 | target 2 MT 5'PFS UGA 3'PFS ACU (mixed) RNA 1: CACCCGUGCAAAAUUGCAGGGGUCUAAAACCUUCUCCAAAUUGUUUCAUCCU RNA 2: GGGAAUGGAUCCACAUCUACGAAUUCUGAAGGAUGAAACAAUUUGGAGAAGACUAGAUCGGAAGAGCACACGU | 15.6 ± 3.5 nM
9 | target 2 MT 5'PFS UGA 3'PFS ACG (mixed) RNA 1: CACCCGUGCAAAAUUGCAGGGGUCUAAAACCUUCUCCAAAUUGUUUCAUCCU RNA 2: GGGAAUGGAUCCACAUCUACGAAUUCUGAAGGAUGAAACAAUUUGGAGAAGACGAGAUCGGAAGAGCACACGU | 11.6 ± 1.9 nM
10 | target 2 MT 5'PFS GUA 3'PFS CUU (mixed) RNA 1: CACCCGUGCAAAAUUGCAGGGGUCUAAAACCUUCUCCAAAUUGUUUCAUCCU RNA 2: GGGAAUGGAUCCACAUCUACGAAUUCGUAAGGAUGAAACAAUUUGGAGAAGCUUAGAUCGGAAGAGCACACGU | 10.2 ± 1 nM
11 | target 2 MT 5'PFS AUU 3'PFS ACG (mixed) RNA 1: CACCCGUGCAAAAUUGCAGGGGUCUAAAACCUUCUCCAAAUUGUUUCAUCCU RNA 2: GGGAAUGGAUCCACAUCUACGAAUUCAUUAGGAUGAAACAAUUUGGAGAAGACGAGAUCGGAAGAGCACACGU | 9 ± 1 nM
12 | target 2 MT 5'PFS UUC 3'PFS CCC (mixed) RNA 1: CACCCGUGCAAAAUUGCAGGGGUCUAAAACCUUCUCCAAAUUGUUUCAUCCU RNA 2: GGGAAUGGAUCCACAUCUACGAAUUCUUCAGGAUGAAACAAUUUGGAGAAGCCCAGAUCGGAAGAGCACACGU | ~29 nM
13 | target 2 MT 5'PFS GAG 3'PFS AAU (mixed) RNA 1: CACCCGUGCAAAAUUGCAGGGGUCUAAAACCUUCUCCAAAUUGUUUCAUCCU RNA 2: GGGAAUGGAUCCACAUCUACGAAUUCGAGAGGAUGAAACAAUUUGGAGAAGAAUAGAUCGGAAGAGCACACGU | 5.6 ± 0.7 nM
14 | target 2 MT 5'PFS UGA 3'PFS ACC (mixed) RNA 1: CACCCGUGCAAAAUUGCAGGGGUCUAAAACCUUCUCCAAAUUGUUUCAUCCU RNA 2: GGGAAUGGAUCCACAUCUACGAAUUCUGAAGGAUGAAACAAUUUGGAGAAGACCAGAUCGGAAGAGCACACGU | 16 ± 4 nM
15 | target 2 MT 5'PFS GCU 3'PFS CUA (mixed) RNA 1: CACCCGUGCAAAAUUGCAGGGGUCUAAAACCUUCUCCAAAUUGUUUCAUCCU RNA 2: GGGAAUGGAUCCACAUCUACGAAUUCGCUAGGAUGAAACAAUUUGGAGAAGCUAAGAUCGGAAGAGCACACGU | 17 ± 5 nM
16 | target 2 MT 5'PFS AAG 3'PFS AUU (mixed) RNA 1: CACCCGUGCAAAAUUGCAGGGGUCUAAAACCUUCUCCAAAUUGUUUCAUCCU RNA 2: GGGAAUGGAUCCACAUCUACGAAUUCAAGAGGAUGAAACAAUUUGGAGAAGAUUAGAUCGGAAGAGCACACGU | 4.1 ± 0.5 nM
17 | target 2 MT 5'PFS UUA 3'PFS AAU (mixed) RNA 1: CACCCGUGCAAAAUUGCAGGGGUCUAAAACCUUCUCCAAAUUGUUUCAUCCU RNA 2: GGGAAUGGAUCCACAUCUACGAAUUCUUAAGGAUGAAACAAUUUGGAGAAGAAUAGAUCGGAAGAGCACACGU | 18 ± 5 nM
18 | target 2 MT 5'PFS UCA 3'PFS UGU (mixed) RNA 1: CACCCGUGCAAAAUUGCAGGGGUCUAAAACCUUCUCCAAAUUGUUUCAUCCU RNA 2: GGGAAUGGAUCCACAUCUACGAAUUCUCAAGGAUGAAACAAUUUGGAGAAGUGUAGAUCGGAAGAGCACACGU | 7.8 ± 1.1 nM
19 | target 2 MT 5'PFS CGG 3'PFS AUA (mixed) RNA 1: CACCCGUGCAAAAUUGCAGGGGUCUAAAACCUUCUCCAAAUUGUUUCAUCCU RNA 2: GGGAAUGGAUCCACAUCUACGAAUUCCGGAGGAUGAAACAAUUUGGAGAAGAUAAGAUCGGAAGAGCACACGU | 4.1 ± 0.5 nM
20 | target 2 MT 5'PFS CGG 3'PFS AUU (mixed) RNA 1: CACCCGUGCAAAAUUGCAGGGGUCUAAAACCUUCUCCAAAUUGUUUCAUCCU RNA 2: GGGAAUGGAUCCACAUCUACGAAUUCCGGAGGAUGAAACAAUUUGGAGAAGAUUAGAUCGGAAGAGCACACGU | 4.01 ± 0.28 nM
21 | target 2 MT 5'PFS CGG 3'PFS AUC (mixed) RNA 1: CACCCGUGCAAAAUUGCAGGGGUCUAAAACCUUCUCCAAAUUGUUUCAUCCU RNA 2: GGGAAUGGAUCCACAUCUACGAAUUCCGGAGGAUGAAACAAUUUGGAGAAGAUCAGAUCGGAAGAGCACACGU | 6.8 ± 1.1 nM
22 | target 2 MT 5'PFS GUA 3'PFS CUG (mixed) RNA 1: CACCCGUGCAAAAUUGCAGGGGUCUAAAACCUUCUCCAAAUUGUUUCAUCCU RNA 2: GGGAAUGGAUCCACAUCUACGAAUUCGUAAGGAUGAAACAAUUUGGAGAAGCUGAGAUCGGAAGAGCACACGU | 11.1 ± 1.2 nM
23 | target 2 MT 5'PFS GAA 3'PFS UUU (mixed) RNA 1: CACCCGUGCAAAAUUGCAGGGGUCUAAAACCUUCUCCAAAUUGUUUCAUCCU RNA 2: GGGAAUGGAUCCACAUCUACGAAUUCGAAAGGAUGAAACAAUUUGGAGAAGUUUAGAUCGGAAGAGCACACGU | 24 ± 4 nM
24 | target 2 MT 5'PFS UGA 3'PFS CAG (mixed) RNA 1: CACCCGUGCAAAAUUGCAGGGGUCUAAAACCUUCUCCAAAUUGUUUCAUCCU RNA 2: GGGAAUGGAUCCACAUCUACGAAUUCUGAAGGAUGAAACAAUUUGGAGAAGCAGAGAUCGGAAGAGCACACGU | 6.6 ± 0.7 nM
25 | target 2 MT 5'PFS AUU 3'PFS ACC (mixed) RNA 1: CACCCGUGCAAAAUUGCAGGGGUCUAAAACCUUCUCCAAAUUGUUUCAUCCU RNA 2: GGGAAUGGAUCCACAUCUACGAAUUCAUUAGGAUGAAACAAUUUGGAGAAGACCAGAUCGGAAGAGCACACGU | 15.2 ± 3.1 nM
26 | target 1 insU 3' of 9,insG 3' of 8 (mixed) RNA 1: CACCCGUGCAAAAAUGCAGGGGUCUAAAACUGAGCGGAUAACCUCUCUAUGG RNA 2: GGGAAUGGAUCCACAUCUACGAAUUCGUACCAUAGAGAGGUUAUUGCCGCUCACCGAGAUCGGAAGAGCACACGU | 8.3 ± 0.5 nM
27 | target 1 insU 3' of 20,insC 3' of 19 (mixed) RNA 1: CACCCGUGCAAAAAUGCAGGGGUCUAAAACUGAGCGGAUAACCUCUCUAUGG RNA 2: GGGAAUGGAUCCACAUCUACGAAUUCGUACCAUUCAGAGAGGUUAUCCGCUCACCGAGAUCGGAAGAGCACACGU | 50 ± 17 nM
28 | target 1 C7A,U10C (mixed) RNA 1: CACCCGUGCAAAAAUGCAGGGGUCUAAAACUGAGCGGAUAACCUCUCUAUGG RNA 2: GGGAAUGGAUCCACAUCUACGAAUUCGUACCAUAGAGAGGUCAUACGCUCACCGAGAUCGGAAGAGCACACGU | 13.6 ± 0.7 nM

Reference: publication PMC10786891, “Massively parallel profiling of RNA-targeting CRISPR-Cas13d”
